The target of test [1] is T1, recombinant FXIII-B (coagulation factor XIII B subunit) (human, UniProt P05160 21-661).
T1 chain: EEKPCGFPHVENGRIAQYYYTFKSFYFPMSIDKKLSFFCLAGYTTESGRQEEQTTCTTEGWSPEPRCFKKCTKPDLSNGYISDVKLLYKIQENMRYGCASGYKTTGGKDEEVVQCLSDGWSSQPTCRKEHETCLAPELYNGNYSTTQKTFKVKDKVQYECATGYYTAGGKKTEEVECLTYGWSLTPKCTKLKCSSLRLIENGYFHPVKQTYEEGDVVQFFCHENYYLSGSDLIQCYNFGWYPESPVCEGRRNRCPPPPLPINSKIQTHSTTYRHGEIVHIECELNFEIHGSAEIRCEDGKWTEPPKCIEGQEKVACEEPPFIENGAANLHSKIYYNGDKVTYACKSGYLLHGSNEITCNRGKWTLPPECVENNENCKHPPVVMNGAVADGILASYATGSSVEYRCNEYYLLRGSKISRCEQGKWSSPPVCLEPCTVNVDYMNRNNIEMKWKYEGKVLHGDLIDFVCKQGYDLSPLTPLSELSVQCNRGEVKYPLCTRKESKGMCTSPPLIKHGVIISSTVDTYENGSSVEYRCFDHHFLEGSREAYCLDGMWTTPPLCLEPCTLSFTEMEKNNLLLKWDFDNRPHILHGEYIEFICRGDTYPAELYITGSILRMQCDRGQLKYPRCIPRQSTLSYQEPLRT
Kind of test: ITC; event 2: M1A1 + A1 ↔ M1A2 (second site). A general note: ITC needs no label: the signal is the heat of the interaction.

For test [2], the target named is recombinant FXIII-A2 (coagulation factor XIII A subunit dimer) (UniProt P00488 2-732, zymogen dimer with activation peptide retained (paper residues 1-37 = entry 2-38; paper numbering = entry minus 1); initiator Met removed; limits follow the paper's domain boundaries (1-731) and PDB 1). Kind of test: ITC; 2.5 µM rFXIII-A2 in the cell, 25 µM rFXIII-B in the syringe; MicroCal200; one set of binding sites fitted in Origin, stepwise model FS ↔ MA + A1 ↔ MA2 fitted in Affinimeter. As to conditions: both partners purified.

B1: recombinant FXIII-A2 (coagulation factor XIII A subunit dimer) (natural protein)
chain: SETSRTAFGGRRAVPPNNSNAAEDDLPTVELQGVVPRGVNLQEFLNVTSVHLFKERWDTNKVDHHTDKYENNKLIVRRGQSFYVQIDFSRPYDPRRDLFRVEYVIGRYPQENKGTYIPVPIVSELQSGKWGAKIVMREDRSVRLSIQSSPKCIVGKFRMYVAVWTPYGVLRTSRNPETDTYILFNPWCEDDAVYLDNEKEREEYVLNDIGVIFYGEVNDIKTRSWSYGQFEDGILDTCLYVMDRAQMDLSGRGNPIKVSRVGSAMVNAKDDEGVLVGSWDNIYAYGVPPSAWTGSVDILLEYRSSENPVRYGQCWVFAGVFNTFLRCLGIPARIVTNYFSAHDNDANLQMDIFLEEDGNVNSKLTKDSVWNYHCWNEAWMTRPDLPVGFGGWQAVDSTPQENSDGMYRCGPASVQAIKHGHVCFQFDAPFVFAEVNSDLIYITAKKDGTHVVENVDATHIGKLIVTKQIGGDGMMDITDTYKFQEGQEEERLALETALMYGAKKPLNTEGVMKSRSNVDMDFEVENAVLGKDFKLSITFRNNSHNRYTITAYLSANITFYTGVPKAEFKKETFDVTLEPLSFKKEAVLIQAGEYMGQLLEQASLHFFVTARINETRDVLAKQKSTVLTIPEIIIKVRGTQVVGSDMTVTVEFTNPLKETLRNVWVHLDGPGVTRPMKKMFREIRPNSTVQWEEVCRPWVSGHRKLIASMSSDSLRHVYGELDVQIQRRPSM
modifications: zymogen dimer with activation peptide retained (paper residues 1-37 = entry 2-38; paper numbering = entry minus 1); initiator Met removed; limits follow the paper's domain boundaries (1-731) and PDB 1F13; any residual tag residues not stated
For the molecule B1, in test [1], the Kd (in general, the equilibrium constant for the complex coming apart) stood at 4.36 µM.

B2: recombinant FXIII-B (coagulation factor XIII B subunit) (natural protein, human, UniProt P05160 21-661, looked up)
chain: T1 chain
notes: coagulation factor XIII B subunit, human cDNA in the pReciever-M01 mammalian expression vector; secreted protein; the stepwise ITC model treats the syringe species as single FXIII-B units; also called rFXIII-B; rFXIII-B2
On to B2, for which, in test [2], the “KD of the first binding event (sequential two-step model)” value was found to be 0.0015 µM, the “KD of the second binding event (MA↔MA2)” value came out at 4.3 µM, the “dH of the first binding event (sequential two-step model)” value was -54.1 kcal/mol and the “dH of the second binding event (MA↔MA2)” value was -86 kcal/mol.

For the origin of these results see publication PMC6995596, “The Plasma Factor XIII Heterotetrameric Complex Structure: Unexpected Unequal Pairing within a Symmetric Complex” (Biomolecules, 2019).
